Experiment: soluble on expression in E. coli; label from the status in PepcDB or PDB records

**Q.** For “MSLTYDLLITDSHVITPKGMVEKNIVVENGKIELITNDSPDCDKKINGSGLVSIPGLIDPHVHYGVYSPIDQAAISESHAAAIGGVTTMIRMFRLKGSYKESLNKHLLASQNSHYIDYTLHASIFDDSQISEMQYCAENKIISFKIYMNLGGDVGHVYMEMNPGEEKLIAAEVNVTNELVEKIVKNAASLKCPVLVHAEDYQECSCGMKTEKEKNHDGLNAWSESRSPNFEAKSIQIICEYGRKYDCQIYFVHIGSKLALDKIKEEKKKGTKIFVETCPHYLTLSHETQTGYLAKVMPPIRTNNDVQSVWNALQNNEIDTIGTDHVANQLKLKLGGDDVWGALAGFPGIGTSLPILLSEGINKNRINLNQLANLTSTNSAKIFGLSGKGSLEKGYDADITMIDLKKEEKVSPELFGGFSDYLVYDGWNLKGWPVKTIVRGTVVAEDFEVIGKPGYGNFVPRKLSEGHHHHHH”, which “soluble on expression in E. coli” value is on record?
**A.** The value was “not soluble”.

**Q.** With “MGSDKIHHHHHHVAAESKTIAIALNNDFINNLDLSPASTVIEQLLRDGAASHEQQLRFDINYDLEPGDPRELSEIPEIRLWFVRLDAKYPWLAFLLDWKAGEFARYAAMLVPHQFSSQDGIQYNPEALEIFLMHKIFILGDWLKQQDIPSLSRLKSMAQMLGYELDDAFFEIF” as the sequence, how does the “soluble on expression in E. coli” value read?
**A.** The value was “not soluble”.

**Q.** For “MSLGQKVVAMLDFLLAYSDYSKDFRPLIIDQPEDNLDNRYIYRHLVQQFRDVKAQRQIILATHNATIVTNSMTDQVVIMESDGVNGWIESQGYVSEKYIKNHIINQLEGGKDSFKHKMSIYETALSEGHHHHHH”, which “soluble on expression in E. coli” value is on record?
**A.** The value was “not soluble”.

**Q.** With “GAMAPSTIWHCFLKGTRLCFHKESNKEWQDVEDFARAASCDNEEEIQMGTHKGYGSDGLKLLSHEESVSFGESVLKLTFDPGTVEDGLLTVECKLDHPFYVKNKGWSSFYPSLTVVQHGIPCCEIHIGDVCLPPGHPDAINF” as the sequence, how does the “soluble on expression in E. coli” value read?
**A.** Its value is “soluble”.

**Q.** With “RTYGDGTKPQTDRVVGGLVVEYDITENIMVSAHYDRTKDEGSVDSGAYIVDGKPVRGDKYIWDAQWSKIDNDVENYGIDINAQVTDNVNVKAGYNRQDFKRFDVESYPKFDNYDKDGVIRHKGNERTDNWVFDTAYLDVTTNFSLLGTENTFLVGANYLDYKYDRFMASHAGEDVAAGTTVTRPGTVRSKKYPRREHDTWGIYAQNMMTINDYWQVLAGARYDEKREDSLTENQVSPKLGVIFHPTSNGSIYVQYSESFMPQGEVSNGSRIYINDGEKLDAERGISYEIGTKWELFDQRLFVSGAVFDITLENISLDVESGKDASNQLLHKKTQGGEQVHKGAELMAQGFVTPELSLTASAMYLDAELKKAERFEGNRPADVPEFSASLWSSYRVQDNTNLNLGLIYEGDRYGDAANTFKKDGYARIDMGVSYKHKYDENLDIIARFNVENLFDTDYLAGGGSTNGNQEGASGVVVGEGRNYMATIQFKY” as the sequence, how does the “soluble on expression in E. coli” value read?
**A.** The value was “not soluble”.

**Q.** Which “soluble on expression in E. coli” value does the source give for “MDNDKKDKIILSGELTNHRFNFTKDGENGYSAYEVDRFLDQLVHTLTHYEAQRNREEEMKTAYEKLFQDRDEILKRCSKLEAELNNFYENGYSNRVLISRVQALENKIESLPSGQNDRLERIEKLLKRVIKHWTDGEDLSYGDFDDDFF” here?
**A.** Its value is “soluble”.

**Q.** Which “soluble on expression in E. coli” value does the source give for “VGEKITKMKEESHKTKQTKTEDPITKETYQARQRTLLQRDYLLVHIEDLLPKQVFAVSVINDYLVCIQAQGLEPMSDVGLLGKHQFYLRTYHYFV” here?
**A.** The value was “not soluble”.

**Q.** Which “soluble on expression in E. coli” value does the source give for “MGSDKIHHHHHHSCDNKGDYWGAMESSKATLTLERICDMATLSQDSVELLSNILGMNTEELYRTDVVMIGKVTSEETGFYQYPRFLIAKDREMKEVLTEAYVHRDTEGTFYAFLESNMLPVGETYYCAMVDYNYGYNGRPGLLDHVLGGNTRGERYSEVKPFRLSGLPRLVVHDAHFTGYSFYLSAEVRFKSNGGIIEQGACYSSTKRIPTVDDQKTLARETRNYDYSFLEVEVTDLLPNTHYYIRPYVTTEEGTGYGPVVEFTTEPGTEPIIDYFTMYIDTDRSVNLYATFYIDNYQITHYGYSYGIYSPETGTVTDEQKIEVPLEDNHGQQLSKVITGLRPGILYAFRVYAENGVGVTYSGYQTVKIPVE” here?
**A.** The value was “not soluble”.

**Q.** With “MATPDTSAAKMAGQDRQKLKVVAWLQNLVERLKGWTPGHCQKLFDEKELIQLCYRAREVFWKNNVKLELKAPVKICGDLHGQYEDLLALLELNGWPPETKYLFLGDYVDRGPFSIEVISLLFAYQVLHPDKVFLLRGNHESRPVNMQYGFFMECRKRFSNALYDAFQLAFYCMPLCAVVSDKIICMHGGISEDLVDLRQLDKVERPCDVPDIGVIADLTWADPDATIQMYAESQRGAGRVFGAEAVKKFLNTHHLELVVRAHQVVMDGYEFFADRQLVTIFSAPSYCGQMDNAAAVMTVDEELVCSFTVMRPDLKKDKEKKAAVGIVPN” as the sequence, how does the “soluble on expression in E. coli” value read?
**A.** Its value is “not soluble”.

**Q.** With “MSLNPPLPHFRYHPEPLASGSIEASATTCQCCGKARGYVYTGSPYSRHELPPGSLCPWCIADGSAAARYEASFSDDYPLLDAGVAADIVTEVCERTPGYTSWQRERWLVCCEDACAFRGDAGREEIGQLGAEGLAQRFADFAWPAITWQRLVDAYTPGGNPAIYRFDCLHCGQAHYDLDFTEGGSHHHHHH” as the sequence, how does the “soluble on expression in E. coli” value read?
**A.** The value was “soluble”.

**Q.** For “MGHHHHHHSHMLFSRIFMAGAPKFIKQLLLDLRNEIYCTILIVGDFNAPLTALDRSSRQKVHKETMGLHCILEQMDLTYIYRTFHPTTAEYTLFSSAHGTFFKIDHIIGHENKSQ”, which “soluble on expression in E. coli” value is on record?
**A.** Its value is “not soluble”.

**Q.** For “MGSDKIHHHHHHMTVLHSVDFFPSGKAPVAIEPRLPQAAFPEHHHDFHEIVIVEHGTGIHVFNGQPYTISGGTVCFVRDHDRHLYEHTDNLCLTNVLWRSPDAFQFLAGLDQLLPQEQDGYYPSHWRVNQSVLQQVRQLVGLMERAGDGMDAPAVANREILFMQLLVLLRRSSLMEGATNNDAKLNQLMAWLEDHFAEEVCWEAVAEQFSLSLRTLHRQLKQHTGLTPQRYLNRLRLIKARHLLRHSDHSVTEIAYRCGFGDSNHFSTLFRREFNWSPRDIRQGRDAIIQ”, which “soluble on expression in E. coli” value is on record?
**A.** The value was “not soluble”.

**Q.** For “MKKAKSRIAILGTGGTIAGFIDSTIATTGYAAGAIDIDVLIKAVPQIRDLADISWEQIANIDSSNMCDEIWLRLAKKIAKLFAEGIDGVVITHGTDTMEETAYFLNLTIKSDKPVVLVGAMRPSTAISADGPKNLYNAVALVVNKEAKNKGVMVAINDKILSARGVVKTHSLNVDAFSSPDFGDLGYIVDGKVFFYNNVIKAHTKNAPFDVSKLTSLPKVDILYSYSNDGSGVAAKALFEHGTKGIVVAGSGAGSIHKNQKDVLKELLKKGLKVVVSSRVVAGCVAVSDSDEKLGFISAEDLNPQKARVLLMLALTKTSDPKKIQEYFLKY”, which “soluble on expression in E. coli” value is on record?
**A.** Its value is “soluble”.

**Q.** With “MSALPPVYSFPPLYTRQPNSLTRRQQISTWIDIISQYCKTKKIWYMSVDGTVINDNELDSGSTDNDDSKKISKNLFNNEDIQRSVSQVFIDEIWSQMTKEGKCLPIDQSGRRSSNTTTTRYFILWKSLDSWASLILQWFEDSGKLNQVITLYELSEGDETVNWEFHRMPESLLYYCLKPLCDRNRATMLKDENDKVIAIKVV” as the sequence, how does the “soluble on expression in E. coli” value read?
**A.** The value was “soluble”.

**Q.** For “MSAQINNIRPEFDREIVDIVDYVMNYEISSKVAYDTAHYCLLDTLGCGLEALEYPACKKLLGPIVPGTVVPNGVRVPGTQFQLDPVQAAFNIGAMIRWLDFNDTWLAAEWGHPSDNLGGILATADWLSRNAVASGKAPLTMKQVLTAMIKAHEIQGCIALENSFNRVGLDHVLLVKVASTAVVAEMLGLTREEILNAVSLAWVDGQSLRTYRHAPNTGTRKSWAAGDATSRAVRLALMAKTGEMGYPSALTAPVWGFYDVSFKGESFRFQRPYGSYVMENVLFKISFPAEFHSQTAVEAAMTLYEQMQAAGKTAADIEKVTIRTHEACIRIIDKKGPLNNPADRDHCIQYMVAIPLLFGRLTAADYEDNVAQDKRIDALREKINCFEDPAFTADYHDPEKRAIANAITLEFTDGTRFEEVVVEYPIGHARRRQDGIPKLVDKFKINLARQFPTRQQQRILEVSLDRARLEQMPVNEYLDLYVI”, which “soluble on expression in E. coli” value is on record?
**A.** The value was “soluble”.

**Q.** With “GHMSVYHHILLAVDFSSEDSQVVQKVRNLASQIGARLSLIHVLDNIPMPDTPYGTAIPLDTETTYDAMLDVEKQKLSQIGNTLGIDPAHRWLVWGEPREEIIRIAEQENVDLIVVGSHGRHGLALLLGSTANSVLHYAKCDVLAVRLRDD” as the sequence, how does the “soluble on expression in E. coli” value read?
**A.** The value was “soluble”.

**Q.** Which “soluble on expression in E. coli” value does the source give for “MGSDKIHHHHHHLNIAVNTRLLLEDRLEGIGWFTYETLKRITEQNPQHTFHFFFDRPYNDKFVFGKNVVPHVLFPQARHPFLWYIFFEWSIPFMLRKVKADAFISTDGYMPKSSKVKVLNVIHDINFEHRPQDLPKRVANYYKKNMPLFAQKATRLATVSEFSKQDLVKTYNIPADKIDVVYNGCNAAFKPIPEAEQVKVRYKHSAGRPFFLYIGSMHPRKNILNLMKAFEVFKKMTNCDMKLLLVGKAMWSNKDIQSLYHTLIYRHDIHFLGHIKTAELARIMASAHALTFVPYFEGFGIPILEALNCGVPVITSNTTSLPEVAGKAALLVNPESSEAIANAMIQIYKAPHIREKLLAQGVIQRQKFSWDKTAALLWASFEKMMR” here?
**A.** The value was “not soluble”.

**Q.** Which “soluble on expression in E. coli” value does the source give for “MRLASMGEEDSTPGRRSKAYSRQGADVRPMKGGHGINLVGTLMAATERGANIVEGVVDFRPTDLRGSLRRGREANLIVFVVDTSGSMAARSRVRAVTGTITSMLNDAYQRRDKVAVIAVNGNKPTLVLNPTNSVEQAQQKLKDMPMGGRTPLAEGLLMAKDLMARELRKEPGRRAILMVMTDGQDTSDAGEAGIATAAETVVKSRLSGNVVIDCEGRLKVRKERAGVLAEMLGGVCVRLRDLNSEHIKMVINA” here?
**A.** The value was “not soluble”.

**Q.** Which “soluble on expression in E. coli” value does the source give for “PLKEQKVINTANITTNSKLDLAEYENGLMNIAKEQFDTENHVLQLNQYIPEKLVDELVAKVKAPVLTNIIEQDYFGKQNSNELSLSGVVIGLAMSSSVSNEEALSKGTEVAGQLIEAIHKNGKYNKSPITFAIFKQESTSSLKNGTYIASATVQKNDTNLGNWNAIEEKAYSYPSDEFTQAHGEDNEKINKFAEAMKGFSPGDFIPVNAKVSYKKNQMDTLNMDIVIKYNGKTELMALTQLAAQSMLDQLPKDAKVQLQIKSENKIEAIVIKEKNSDKPFVSFL” here?
**A.** The value was “soluble”.

**Q.** With “MSLSIISQIEACDFERLYEIEQQAHLVPWSFGTLKNNQGERYLNLKLIENNQIIGFAICQTVLDEATLFNIAILPTYQGCGFGKLLLGKLIFQLKEKGVQTLWLEVRESNSARFLYEKIGFNEVDIRKNYYPKPSGGRENAVVMACYLEGHHHHHH” as the sequence, how does the “soluble on expression in E. coli” value read?
**A.** Its value is “not soluble”.

**Q.** With “MSLKTTLPISLDWSTEEVIDVVHFFQAIEQAYDQGIAREDLLGKYRRFKEIVPSKSEEKQLFRAYEQENDVSCYQTIKKAREEMEEHIQMEGHHHHHH” as the sequence, how does the “soluble on expression in E. coli” value read?
**A.** Its value is “soluble”.

**Q.** With “MRVSGSASSQDIISRINSKNINNNDSNEVKRIKDALCIESKERILYPQNLSRDNLKQMARYVNNTYVHYSGNCVLLSACLHYNIHHRQDILSSKNTASPTVGLDSAIVDKIIFGHELNQSYCLNSIDEVEKEILNRYDIKRESSFIISAENYIAPIIGECRHDFNAVVICEYDKKPYVQFIDSWKTSNILPSLQEIKKHFSSSGEFYVRAYDEKHD” as the sequence, how does the “soluble on expression in E. coli” value read?
**A.** Its value is “not soluble”.

**Q.** For “MTLTTTLTTGLALLLAAQALPAPASAAPAAVGSVTIGWADATHELIKITWTETTAAANTLTLHTDDPETAAVRFGTTTADQPNEYLVDPTQLGYTADPRHTSWILVSDGTATTARSVDFDRFHHAQRGAALSFAGDRVRWTAPADTSVDGTPGDPLDLPKAYTYQPMQRVDDDPVGNYECKDTELPATTERTGLVPNPGTAYDLFLTMTNEWGTADVGYLQVGTTQTVTADGPAATAYGATTTIKGHAEGTVMFEQGRPPVCDEVRVDLSNQPLTVQQRTSSTAPWTVVGTVRTTVNGDYTAVVKNPGHRQYRVVRPNTAAFESAWYGGTSGVITVRSLTRVVSAKFIQPVVRLGTRPQAYLWVDPAGTQKAALQFRNAAGAWQGVTYKTLYAGRGLVSFPWNRRGTTRFRWWVPASGGAESVVSPVFTVTVT”, which “soluble on expression in E. coli” value is on record?
**A.** Its value is “not soluble”.
